1 molecule from US20260034234A1 (AGENSYS, published 2026) can be followed below.

For assay [1], the target named is T1, Cynomolgus 191P4D12 (on PC3 cells) (cynomolgus monkey, UniProt A0A2K5WES1 32-510).
T1 construct: also called PC3-Cynomolgus-191P4D12; Cyno ortholog
T1 sequence: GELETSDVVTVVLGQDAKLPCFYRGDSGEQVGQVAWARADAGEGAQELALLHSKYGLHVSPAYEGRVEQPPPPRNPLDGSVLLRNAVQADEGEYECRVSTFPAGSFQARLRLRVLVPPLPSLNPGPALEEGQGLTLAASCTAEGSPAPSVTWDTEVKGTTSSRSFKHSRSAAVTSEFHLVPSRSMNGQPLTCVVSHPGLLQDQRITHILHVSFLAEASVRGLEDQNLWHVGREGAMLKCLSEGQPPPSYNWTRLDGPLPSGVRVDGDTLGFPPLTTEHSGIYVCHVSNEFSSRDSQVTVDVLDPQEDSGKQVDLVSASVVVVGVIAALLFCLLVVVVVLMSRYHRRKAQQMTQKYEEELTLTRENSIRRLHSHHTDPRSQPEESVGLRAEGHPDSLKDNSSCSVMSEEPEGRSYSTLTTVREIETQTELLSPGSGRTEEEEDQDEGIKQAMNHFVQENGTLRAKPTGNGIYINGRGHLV
Kind of assay: FACS on PC3 cells expressing the cyno ortholog. From the text:
The 191P4D12 protein of human, cynomolgus, rat and murine origin was overexpressed recombinantly in a PC3 cell line to determine cross-reactivity of Ha22-2(2,4)6.1 to these orthologs. It was shown that Ha22-2(2,4)6.1 strongly cross-reacts with cynomolgus and rat orthologs of 191P4D12 (FIG. 23).

Assay [2] concerns the target T2, Rat 191P4D12 (on PC3 cells) (rat, UniProt D3ZET1 31-509).
T2 construct: whole, on cells; also called PC3-rat-191P4D12; Rat ortholog
T2 sequence: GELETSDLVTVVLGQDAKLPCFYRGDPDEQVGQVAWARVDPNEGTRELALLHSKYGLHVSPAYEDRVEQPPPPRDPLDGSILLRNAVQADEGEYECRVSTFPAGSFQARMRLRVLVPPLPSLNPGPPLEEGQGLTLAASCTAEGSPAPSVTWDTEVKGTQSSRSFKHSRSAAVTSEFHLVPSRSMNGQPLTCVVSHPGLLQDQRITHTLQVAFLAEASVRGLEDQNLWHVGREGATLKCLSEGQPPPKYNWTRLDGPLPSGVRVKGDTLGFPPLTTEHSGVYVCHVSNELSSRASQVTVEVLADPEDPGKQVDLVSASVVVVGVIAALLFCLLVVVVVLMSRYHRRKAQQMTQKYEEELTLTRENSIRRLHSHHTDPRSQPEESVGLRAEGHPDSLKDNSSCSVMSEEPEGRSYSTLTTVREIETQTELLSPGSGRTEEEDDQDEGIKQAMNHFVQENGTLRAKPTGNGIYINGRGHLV
Kind of assay: FACS titration on PC3 cells expressing the rat ortholog.

In assay [3] the target is T3, 191P4D12 (aa 1-31, 147-510), C1C2, Rat1(E) expressing line (human, UniProt Q96NY8 1-510).
T3 construct: Deletion construct on the surface of Rat1(E) cells; also called C1C2 domain expressing cells
T3 sequence: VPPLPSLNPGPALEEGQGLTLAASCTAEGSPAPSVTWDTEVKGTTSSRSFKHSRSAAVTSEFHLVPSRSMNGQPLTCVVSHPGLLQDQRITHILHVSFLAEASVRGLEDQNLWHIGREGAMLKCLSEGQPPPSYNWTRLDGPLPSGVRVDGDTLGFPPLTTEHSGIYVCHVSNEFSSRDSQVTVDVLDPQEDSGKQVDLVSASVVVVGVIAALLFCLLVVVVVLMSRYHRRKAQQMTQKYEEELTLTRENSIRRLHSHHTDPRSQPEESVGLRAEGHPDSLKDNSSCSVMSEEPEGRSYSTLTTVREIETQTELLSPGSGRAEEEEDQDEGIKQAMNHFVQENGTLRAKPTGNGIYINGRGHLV
The assay is described as follows: FACS on Rat1(E) cells expressing the C1C2 construct [Continued].

In assay [4] the target is T1, Cynomolgus 191P4D12 (on PC3 cells). The assay is described as follows: FACS titration on PC3 cells expressing the cynomolgus ortholog.
In assay [5] the target is T4, 191P4D12 (human, wild type, on cells) (human, UniProt Q96NY8 32-510).
T4 construct: 510 amino acid ORF expressed on PC3, RAT/Rat1(E) cells and present in cancer cell lines and tumor specimens; also called human 191P4D12; wild-type 191P4D12
T4 sequence: T1 sequence with A39V, V230I, T437A
Kind of assay: FACS titration of Ha22-2(2,4)6.1 on PC3 cells expressing 191P4D12.

Assay [6] deals with T5, 191P4D12 (aa 1-31, 147-346), mFc-C1C2, fusion protein (human, UniProt Q96NY8 1-346).
T5 construct: Expressed in 293T cells and purified; also called C1C2 fusion construct; not shown: murine Fc
T5 sequence: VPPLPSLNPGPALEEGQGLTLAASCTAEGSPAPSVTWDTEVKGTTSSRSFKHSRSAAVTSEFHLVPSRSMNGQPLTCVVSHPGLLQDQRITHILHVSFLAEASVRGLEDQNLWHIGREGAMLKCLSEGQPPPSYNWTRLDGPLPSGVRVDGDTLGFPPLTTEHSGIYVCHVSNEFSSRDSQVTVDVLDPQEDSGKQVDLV
The assay is described as follows: Western blot of purified mFc fusion proteins (non-reduced SDS-PAGE), probed with Ha22-2(2,4)6.1-biotin and streptavidin-HRP. As to the method: To further corroborate the results set forth in FIG. 10, a Western Blot analysis was performed. Briefly, the entire extracellular portion of 191P4D12 (full length), as well as specific domains set forth in Table VI were expressed in 293T cells as murine Fc fusion proteins and purified. Goat anti-mouse-HRP were used as a control.

Positions count from the first letter of the chain named.

B1: Ha22-2(2,4)6.1 MAb (antibody, human IgG1, kappa, V domains shown)
VH: EVQLVESGGGLVQPGGSLRLSCAASGFTFSSYNMNWVRQAPGKGLEWVSYISSSSSTIYYADSVKGRFTISRDNAKNSLSLQMNSLRDEDTAVYYCARAYYYGMDVWGQGTTVTVSS
VL: DIQMTQSPSSVSASVGDRVTITCRASQGISGWLAWYQQKPGKAPKFLIYAASTLQSGVPSRFSGSGSGTDFTLTISSLQPEDFATYYCQQANSFPPTFGGGTKVEIKR
notes: Fully human IgG1 kappa from XenoMouse; Used biotinylated in the Western blot; also called 191P4D12 MAb Ha22-2(2,4)6.1; Ha22-(2,4)6.1 MAb
In assay [1], B1 showed an EC50 of 0.3 nM. In addition, the entries for the “EC50 (read off the curve)” value in assay [2], in assay [4] and in assay [5] were around 0.3 nM, around 0.3 nM and around 0.6 nM, respectively. Besides, the binding result in assay [3] and in assay [6] was “no binding” throughout.

A word on the EC50: it is the concentration at which the effect is half-maximal. One may read the EC50 (read off the curve) as the concentration at which the effect is half-maximal. A high value points to weaker potency.
